Legend:
Test in all cases: holdup assay
Design in all cases: key: below the threshold = too weak to quantify, mostly under pKd 3.1 to 4
Conditions in all cases: plain residues with an end cap or a label only (N-terminal biotin on a linker: ado-ado)
[1] = target: IL16_1, Q14005
[2] = target: T1, MPDZ_5, O75970
T1 sequence (O75970 695-796, limits assumed, looked up): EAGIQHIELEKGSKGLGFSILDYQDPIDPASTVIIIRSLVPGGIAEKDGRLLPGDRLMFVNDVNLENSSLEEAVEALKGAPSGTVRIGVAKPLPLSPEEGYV

[3] = target: T2, MPDZ_10, O75970
T2 sequence (O75970 1624-1722, limits assumed, looked up): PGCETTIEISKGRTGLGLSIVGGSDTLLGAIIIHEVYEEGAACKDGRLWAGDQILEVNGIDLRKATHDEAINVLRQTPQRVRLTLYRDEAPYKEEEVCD

[4] = target: GORASP1, Q9BQQ3
Sequence of GORASP1, Q9BQQ3 (Q9BQQ3 1-208): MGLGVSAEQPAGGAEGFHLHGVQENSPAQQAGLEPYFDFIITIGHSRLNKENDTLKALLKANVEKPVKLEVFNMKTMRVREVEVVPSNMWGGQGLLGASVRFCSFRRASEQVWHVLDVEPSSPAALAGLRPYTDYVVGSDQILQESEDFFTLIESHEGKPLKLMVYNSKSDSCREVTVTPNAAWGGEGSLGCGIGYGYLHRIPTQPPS

[5] = target: T3, LRRC7, Q96NW7
T3 sequence (Q96NW7 1440-1537, limits assumed, looked up): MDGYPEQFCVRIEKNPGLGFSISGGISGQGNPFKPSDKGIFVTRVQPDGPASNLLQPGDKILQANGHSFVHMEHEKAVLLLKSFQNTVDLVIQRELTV

[6] = target: T4, SNTB1, Q13884
T4 sequence (Q13884 107-205, limits assumed, looked up): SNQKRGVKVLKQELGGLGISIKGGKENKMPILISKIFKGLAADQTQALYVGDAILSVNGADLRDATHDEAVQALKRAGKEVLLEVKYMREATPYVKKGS

[7] = target: DLG2_3, Q15700
[8] = target: T5, MPP7, Q5T2T1
T5 sequence (Q5T2T1 134-230, limits assumed, looked up): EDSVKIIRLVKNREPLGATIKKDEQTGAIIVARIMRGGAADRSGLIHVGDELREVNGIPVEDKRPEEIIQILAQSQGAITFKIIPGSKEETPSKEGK

[9] = target: PDLIM1, O00151
Sequence of PDLIM1, O00151 (O00151 1-87): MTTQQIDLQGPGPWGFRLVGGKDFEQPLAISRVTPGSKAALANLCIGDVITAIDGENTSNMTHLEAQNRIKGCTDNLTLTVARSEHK

[10] = target: NHERF4_1, Q86UT5-2
Sequence of NHERF4_1, Q86UT5-2 (Q86UT5 other isoform, or with tags, fused parts or gaps): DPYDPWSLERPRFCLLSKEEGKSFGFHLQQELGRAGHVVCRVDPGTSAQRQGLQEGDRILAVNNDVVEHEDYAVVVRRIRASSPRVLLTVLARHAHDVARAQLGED

[11] = target: T6, HTRA3, P83110
T6 sequence (P83110 354-453, limits assumed, looked up): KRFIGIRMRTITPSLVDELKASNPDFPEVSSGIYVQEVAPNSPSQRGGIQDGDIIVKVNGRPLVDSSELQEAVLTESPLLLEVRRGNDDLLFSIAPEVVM

[12] = target: T7, RHPN1, Q8TCX5
T7 sequence (Q8TCX5 508-602, limits assumed, looked up): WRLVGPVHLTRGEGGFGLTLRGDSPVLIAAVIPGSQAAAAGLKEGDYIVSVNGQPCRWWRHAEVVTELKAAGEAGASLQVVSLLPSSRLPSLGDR

[13] = target: Inadl_4, Q8NI35
Sequence of Inadl_4, Q8NI35 (Q8NI35 547-651): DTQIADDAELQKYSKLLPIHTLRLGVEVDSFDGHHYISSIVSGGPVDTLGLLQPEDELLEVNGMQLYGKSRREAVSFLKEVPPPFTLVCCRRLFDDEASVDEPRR

[14] = target: Inadl_3, Q8NI35
Sequence of Inadl_3, Q8NI35 (Q8NI35 359-469): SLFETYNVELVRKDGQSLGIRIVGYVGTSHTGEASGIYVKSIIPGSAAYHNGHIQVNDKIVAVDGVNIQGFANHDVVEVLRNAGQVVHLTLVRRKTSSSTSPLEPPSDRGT

[15] = target: GORASP2, Q9H8Y8
[16] = target: T8, DFNB31_2, Q9P202
T8 sequence (Q9P202 274-371, limits assumed, looked up): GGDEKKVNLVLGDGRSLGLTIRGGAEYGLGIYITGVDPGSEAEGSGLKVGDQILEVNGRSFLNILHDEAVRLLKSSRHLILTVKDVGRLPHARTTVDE

[17] = target: T9, PDZRN3_1, Q9UPQ7
T9 sequence (Q9UPQ7 244-349, limits assumed, looked up): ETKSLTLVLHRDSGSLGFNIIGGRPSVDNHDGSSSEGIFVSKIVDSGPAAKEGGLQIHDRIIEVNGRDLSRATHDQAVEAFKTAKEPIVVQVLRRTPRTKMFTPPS

[18] = target: T10, ARHGAP21, Q5T5U3
T10 sequence (Q5T5U3 45-169, limits assumed, looked up): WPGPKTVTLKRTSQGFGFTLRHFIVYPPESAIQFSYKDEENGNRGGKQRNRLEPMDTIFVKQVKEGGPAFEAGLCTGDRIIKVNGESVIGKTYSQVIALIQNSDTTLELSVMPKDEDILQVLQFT

[19] = target: T11, FRMPD1, Q5SYB0
T11 sequence (Q5SYB0 52-145, limits assumed, looked up): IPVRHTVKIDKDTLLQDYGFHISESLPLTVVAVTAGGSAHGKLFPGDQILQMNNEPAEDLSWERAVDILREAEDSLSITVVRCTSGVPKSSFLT

[20] = target: NHERF4_4, Q86UT5
Sequence of NHERF4_4, Q86UT5 (Q86UT5 464-550): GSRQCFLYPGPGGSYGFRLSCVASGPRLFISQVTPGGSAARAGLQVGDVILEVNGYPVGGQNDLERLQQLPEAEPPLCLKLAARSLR

[21] = target: Inadl_1, Q8NI35
Sequence of Inadl_1, Q8NI35 (Q8NI35 113-229): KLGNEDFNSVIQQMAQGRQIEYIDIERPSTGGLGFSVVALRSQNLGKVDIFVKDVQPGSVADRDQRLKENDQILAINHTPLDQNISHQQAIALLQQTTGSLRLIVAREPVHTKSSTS

[22] = target: DLG4_1, P78352
Sequence of DLG4_1, P78352 (P78352 62-152): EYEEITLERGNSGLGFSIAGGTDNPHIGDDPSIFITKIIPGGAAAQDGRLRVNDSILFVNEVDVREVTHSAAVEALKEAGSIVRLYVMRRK

[23] = target: SCRIB_3, Q14160
Sequence of SCRIB_3, Q14160 (Q14160 999-1103): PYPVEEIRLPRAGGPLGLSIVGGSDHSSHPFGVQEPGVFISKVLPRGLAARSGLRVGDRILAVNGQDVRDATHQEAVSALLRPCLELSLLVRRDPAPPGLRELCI

[24] = target: TJP1_2, Q07157
Sequence of TJP1_2, Q07157 (Q07157 181-274): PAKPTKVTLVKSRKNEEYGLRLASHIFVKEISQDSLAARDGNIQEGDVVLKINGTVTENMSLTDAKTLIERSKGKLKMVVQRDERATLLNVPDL

[25] = target: GRIP2_6, Q9C0E4
Sequence of GRIP2_6, Q9C0E4 (Q9C0E4 648-740): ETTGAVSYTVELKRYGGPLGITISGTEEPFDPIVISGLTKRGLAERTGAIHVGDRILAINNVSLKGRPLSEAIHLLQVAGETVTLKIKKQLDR

[26] = target: FRMPD2_2, Q68DX3
Sequence of FRMPD2_2, Q68DX3 (Q68DX3 944-1038): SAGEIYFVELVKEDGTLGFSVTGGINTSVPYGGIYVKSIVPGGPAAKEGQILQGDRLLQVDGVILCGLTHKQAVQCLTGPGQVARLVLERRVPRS

[27] = target: SCRIB_1, Q14160
Sequence of SCRIB_1, Q14160 (Q14160 718-814): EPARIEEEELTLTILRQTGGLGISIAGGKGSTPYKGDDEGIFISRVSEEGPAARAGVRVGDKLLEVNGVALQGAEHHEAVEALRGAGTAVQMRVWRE

Sequence of IL16_1, Q14005 (Q14005 210-306): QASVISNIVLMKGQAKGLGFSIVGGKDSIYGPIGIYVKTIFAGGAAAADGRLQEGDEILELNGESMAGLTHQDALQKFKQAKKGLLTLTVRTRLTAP

| Binder | pKd [1] | pKd [2] | pKd [3] | pKd [4] | pKd [5] | pKd [6] | pKd [7] | pKd [8] | pKd [9] | pKd [10] | pKd [11] | pKd [12] | pKd [13] | pKd [14] | pKd [15] | pKd [16] | pKd [17] | pKd [18] | pKd [19] | pKd [20] | further results |
| --- | --- | --- | --- | --- | --- | --- | --- | --- | --- | --- | --- | --- | --- | --- | --- | --- | --- | --- | --- | --- | --- |
| IKLETKKTKL [SLC15A2, Q16348] | below the threshold | below the threshold | below the threshold | below the threshold | below the threshold | 3.71 | below the threshold | below the threshold | below the threshold | 4.27 | below the threshold | 3.76 | below the threshold | below the threshold | below the threshold | 3.55 | below the threshold | 3.98 | below the threshold | below the threshold | pKd [21]: below the threshold; pKd [22]: 3.69; pKd [23]: 3.77; pKd [24]: below the threshold; pKd [25]: 3.48; pKd [26]: below the threshold; pKd [27]: 3.79 |
| DLLGGGSDSI [TNRC6B, Q9UPQ9] | below the threshold | below the threshold | below the threshold | below the threshold | below the threshold | below the threshold | 3.62 | below the threshold | below the threshold | 3.63 | below the threshold | 3.79 | below the threshold | below the threshold | below the threshold | below the threshold | below the threshold | below the threshold | below the threshold | below the threshold | pKd [21]: below the threshold; pKd [22]: below the threshold; pKd [23]: below the threshold; pKd [24]: 3.62; pKd [25]: below the threshold; pKd [26]: below the threshold; pKd [27]: below the threshold |
| GTMFLRETSL [GUCY1A2, P33402] | 4.47 | below the threshold | 3.67 | below the threshold | 4.33 | 5.39 | 4.79 | below the threshold | 3.78 | 4.54 | below the threshold | 4.8 | below the threshold | below the threshold | below the threshold | 4.53 | 6.34 | 4.7 | below the threshold | below the threshold | pKd [21]: below the threshold; pKd [22]: 4.03; pKd [23]: 5.37; pKd [24]: below the threshold; pKd [25]: below the threshold; pKd [26]: below the threshold; pKd [27]: 5.69 |
| GQNMTVSVVI [PRLHR, P49683] | 3.81 | below the threshold | below the threshold | 4.28 | below the threshold | 4.15 | 3.74 | below the threshold | below the threshold | 3.64 | 3.72 | below the threshold | below the threshold | 4.52 | below the threshold | below the threshold | below the threshold | below the threshold | below the threshold | 3.97 | pKd [21]: below the threshold; pKd [22]: below the threshold; pKd [23]: 3.66; pKd [24]: 3.69; pKd [25]: 4.15; pKd [26]: below the threshold; pKd [27]: 3.65 |
| NSTHNLKDYV [CLDN20, P56880] | below the threshold | below the threshold | below the threshold | below the threshold | below the threshold | below the threshold | below the threshold | below the threshold | below the threshold | 3.69 | 3.97 | below the threshold | below the threshold | below the threshold | below the threshold | below the threshold | 3.83 | 3.89 | below the threshold | below the threshold | pKd [21]: below the threshold; pKd [22]: below the threshold; pKd [23]: below the threshold; pKd [24]: below the threshold; pKd [25]: below the threshold; pKd [26]: below the threshold; pKd [27]: below the threshold |

Reference: publication PMC9482650, “Quantitative fragmentomics allow affinity mapping of interactomes” (Nature Communications, 2022)
